Source: paper PMC4023160, “Head-to-tail interactions of the coiled-coil domains regulate ClpB activity and cooperation with Hsp70 in protein disaggregation” (eLife, 2014)

B1: ND truncation of E. coli ClpB (residues 159 to 858; E279A/E432A/E678A), SeMet (domain or fragment)
chain: not shown
modifications: selenomethionine (SeMet)
notes: ClpB of E. coli, residues 159 to 858, without the N-terminal domain; One molecule in the asymmetric unit (P65); monomers form a spiral assembly in the crystal; also called ClpB E279A/E432A/E678A (SeMet) + ATP; E. coli ClpB-E432A (crystal structure); source: purified (Ni-IDA, size exclusion chromatography Superdex S200)
B2: ClpB-K431C-S499C repressed (E432A) variant (natural protein)
chain: not shown
notes: ClpB of E. coli; source: purified (Ni-IDA, size exclusion chromatography Superdex S200); dialyzed to remove DTT
B3: ClpB-Q427W-Q502C-IAEDANS (W462Y/W543L) with E432A (natural protein)
chain: not shown
modifications: IAEDANS on the cysteine at 502 (Q502C), labelled with efficiencies of 70-80%
notes: ClpB of E. coli; also called E432A (FRET pair); source: purified (Ni-IDA, size exclusion chromatography Superdex S200); labelled with 1,5-IAEDANS
B4: ClpB-Q427W-Q502C-IAEDANS in the tryptophan-free ClpB-W462Y/W543L variant (natural protein)
chain: not shown
modifications: IAEDANS on the cysteine at 502 (Q502C), labelled with efficiencies of 70-80%
notes: ClpB of E. coli; also called wild type ClpB (FRET pair); source: purified (Ni-IDA, size exclusion chromatography Superdex S200); labelled with 1,5-IAEDANS
B5: ClpP protease (enzyme)
chain: not shown
notes: ClpP protease; source: purified as described previously (Oguchi et al., 2012); copies: 14
B6: ClpB-K431C-S499C hyperactive (Y503D) variant (natural protein)
chain: not shown
notes: as for B2

How the values were obtained:
[1] = target: the molecule itself; assay: crystal structure; SeMet protein with ATP (ADP bound), space group P65, one molecule in the asymmetric unit, 3.50 Å
[2] = target: the molecule itself; assay: cross-linking; disulfide cross-linking: 4 μM ClpB cysteine variant, 25 μM Cu-Phenanthroline, 1 min at room temperature; non-reducing SDS gradient gel (3-8%)
[3] = target: the molecule itself; assay: FRET or BRET; Trp (Q427W, donor) to IAEDANS (Q502C, acceptor) between adjacent subunits; low salt buffer A (50 mM Tris pH 7.5, 5 mM MgCl2, 20 mM KCl, 2 mM DTT) without or with 2 mM ATP, 25°C, excitation 290 nm
[4] = target: the molecule itself; assay: negative-stain EM single-particle reconstruction; BAP(HAP)-ClpP complexes formed in 20 mM Tris-HCl pH 7.5, 20 mM KCl, 15 mM MgCl2, 1 mM DTT, 2 mM ATPγS; stained with 2% uranyl acetate; side views of 2:2 complexes cut into 1:1 halves; sixfold symmetry imposed or none

Protein | binding result [2] | binding result [3] | also measured
B1 | – | – | binding result [1]: binds
B2 | binds | – | –
B3 | – | binds | –
B4 | – | binds | –
B5 | – | – | stoichiometry N [4]: 14
B6 | binds | – | –
